From paper doi:10.1101/575910 (bioRxiv, 2019)

What was measured:
[1] = target: N-terminal region of Cul3 (Cul3a residues 1-379) (zebrafish, UniProt F6NVK8 1-379); test: MST
[2] = target: Cul3 NTD lacking the first 18 amino acids (zebrafish, UniProt F6NVK8 19-379); test: MST

B1: BTB domain of Plzf (Plzfa residues 8-126) (domain or fragment)
chain: MIQLQNPNHPNALLHKANQMRLAGTLCDVVIMVDSQEFHAHRTVLACTSKMFEILFHRNSQHYTLDFLSPKTFQQILEYAYTATLQAKVEDLDDLLYAAEILEIEYLEEQCLKILETIQ
modifications: NT-647 amine-reactive dye (RED-NHS kit) where used as the labelled partner in MST
B1 was tested, and the Kd [1] was 2900 nM and the Kd [2] was at least 20000 nM.

B2: BTB-BACK fragment of Btbd6 (Btbd6a residues 119-361) (domain or fragment)
chain: SAHPTLRERNALMFNNEQMADVHFIVGPPGESQRVPAHKYVLAVGSSVFCAMFYGDLAEGDSDIHIPDVEPAAFLILLKYMYSDEIELAPDTVLATLYAAKKYLVSALARACVGFLETSLEARNACVLLSQSRLFEEPELTQRCWEVIDAQAELALRSEGFSEIDLPTLESILHRETLNVKESVVFQAVLGWADAECRRQGLSPTSQNQRSVLGKALHLVRLPSMTLQEFADGAAQVDILTLE
modifications: NT-647 amine-reactive dye (RED-NHS kit) where used as the labelled partner in MST
For B2, the Kd [1] was 12 nM.
